Test results as given in patent publication US20250186597A1, “TARGETED IMMUNE ACTIVATION WITH IL-18 IMMUNOCYTOKINES” (BRIGHT PEAK THERAPEUTICS AG, priority 2023, published 2025).

Key:
[1] = biological target: T1, human PD-L1/B7-H1 (Homo sapiens, UniProt Q9NZQ7); assay: PD-L1 binding ELISA assay (Example 5); details: biotinylated human PD-L1
T1 construct: purchased ACROBiosystems PD1-H82E5-25UG
Description: The interaction of the unmodified antibodies and corresponding IL-18 immunocytokines with relevant immune cell associated antigen are measured by ELISA assay. For these studies, Corning high-binding half-area plates (Fisher Scientific, Reinach, Switzerland) are coated overnight at 4° C. with 25 μl of unmodified antibodies corresponding IL-18 immunocytokines at […] in PBS. […] Plate surfaces are blocked with 25 μl of PBS-0.02% Tween20-1% BSA at 37° C. during 1 h. […] ELISA signal is then measured at 450 nm on an ENSPIRE® plate reader from Perkin Elmer (Schwerzenbach, Switzerland).

[2] = biological target: T2, human PD1 (Homo sapiens, UniProt Q15116); assay: Binding kinetics to PD-1 by Bio-Layer Interferometry (Example 6); details: BLI, His-tagged human PD1
T2 construct: purchased R&D #8986-PD
T2 sequence (Q15116 25-288): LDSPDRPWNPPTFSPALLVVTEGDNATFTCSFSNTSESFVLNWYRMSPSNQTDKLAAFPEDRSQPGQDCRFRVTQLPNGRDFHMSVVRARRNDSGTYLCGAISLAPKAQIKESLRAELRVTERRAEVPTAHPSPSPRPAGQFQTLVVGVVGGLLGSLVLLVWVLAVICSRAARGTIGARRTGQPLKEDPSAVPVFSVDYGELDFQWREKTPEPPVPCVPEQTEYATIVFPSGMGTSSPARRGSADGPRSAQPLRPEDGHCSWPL
From the text: Based on Bio-Layer Interferometry (BLI), Octet® BLI systems enable real-time, label-free analysis for the determination of kinetics and affinity of a ligands to its receptor. Here anti-human IgG FC Capture (AHC) sensors are loaded with the test items (ICs). Sensors are first dipped into a kinetic buffer for baseline measurement, then into an analyte solution, here human PD1, to allow association and again into a buffer solution where the analyte is allowed to come off the ligand (dissociation). Several concentrations of analyte are run in parallel and enable the calculation of affinity parameters: Ka, Kd, KD.
Typically, first, the sensors are regenerated by 3 cycles of dipping into 10 mM glycine solution at pH=2 for 20 seconds, followed by 20 second kinetics buffer and a final 60 seconds in kinetics buffer to establish the initial signal (baseline). Second, the loading column will contain the ligand, here the unmodified PD-1 antibodies and of IL-18 polypeptide conjugated PD-1 antibody, at a fixed concentration determined in the loading scout experiment (20 ug/mL). Then another wash/baseline step allows non immobilized proteins to be washed away. […] After acquisition, the data is analyzed with Data Analysis Studio software (Sartorius). […] Group fitting is then applied to the data series and kinetics parameters are calculated.

[3] = biological target: T3, human Fc gamma receptors I (FcγRI/CD64) (Homo sapiens, UniProt P12314); assay: Human FcγR binding ELISA, FcγRI/CD64 (Example 8); details: ELISA binding affinity
T3 construct: purchased R&D systems 1257-FC-050
T3 sequence (P12314 16-374): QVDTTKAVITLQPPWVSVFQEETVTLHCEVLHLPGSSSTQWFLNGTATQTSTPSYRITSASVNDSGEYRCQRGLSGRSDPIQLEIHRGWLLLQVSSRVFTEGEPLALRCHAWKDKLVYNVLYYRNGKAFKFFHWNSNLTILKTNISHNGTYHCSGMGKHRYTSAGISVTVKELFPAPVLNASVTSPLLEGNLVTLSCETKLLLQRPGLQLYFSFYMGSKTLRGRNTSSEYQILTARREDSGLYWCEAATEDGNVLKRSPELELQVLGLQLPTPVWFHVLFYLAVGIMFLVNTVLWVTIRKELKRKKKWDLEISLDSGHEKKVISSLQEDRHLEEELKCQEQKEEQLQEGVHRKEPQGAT
Description: (§1) The interaction of the unmodified and of conjugated antibodies with human Fc gamma receptors I (FcγRI/CD64), with human Fc gamma receptors IIa (FcγRIIa/CD32a), with inhibitory human Fc gamma receptors IIb (FcγRIIb/CD32b), and with human Fc gamma receptors III FcγRIIIa/CD16 were measured by ELISA.
(§2) Briefly, Corning high-binding half-area plates (Fisher Scientific, Reinach, Switzerland) were coated overnight at 4° C. with 25 μl of unmodified and of conjugated anti-PD1 antibodies at 2.5 μg/ml in PBS. […] Plates surfaces were blocked with 25 μl of PBS-0.02% Tween20-1% BSA at 37° C. during 1 h. […] Twenty-five microliters of a 1/500 HRP-anti-His antibody in PBS—0.02% Tween20—0.1% BSA (R&D systems, anti-HIS—HRP Ab, #MAB050H) were added to each well and plates were incubated at Room Temperature during 1 h. […] ELISA signal was then measured at 450 nm on an EnSpire plate reader from Perkin Elmer (Schwerzenbach, Switzerland).

[4] = biological target: T4, human Fc gamma receptors IIa (FcγRIIa/CD32a) (Homo sapiens, UniProt P12318); assay: Human FcγR binding ELISA, FcγRIIa/CD32a (Example 8); details: ELISA binding affinity
T4 construct: purchased R&D systems 9595-CD-050
T4 sequence (P12318 34-317): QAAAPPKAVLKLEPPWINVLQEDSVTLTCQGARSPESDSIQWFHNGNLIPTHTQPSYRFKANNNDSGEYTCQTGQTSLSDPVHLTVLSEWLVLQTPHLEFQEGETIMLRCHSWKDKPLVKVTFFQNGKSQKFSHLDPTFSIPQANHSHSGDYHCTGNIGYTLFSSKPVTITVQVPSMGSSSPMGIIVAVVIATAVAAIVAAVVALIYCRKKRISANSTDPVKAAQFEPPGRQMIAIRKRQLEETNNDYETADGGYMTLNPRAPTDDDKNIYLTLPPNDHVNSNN
Description: as §1, §2

[5] = biological target: T5, human Fc gamma receptors IIb (FcγRIIb/CD32b) (Homo sapiens, UniProt P31994); assay: Human FcγR binding ELISA, FcγRIIb/CD32b (Example 8); details: ELISA binding affinity
T5 construct: purchased R&D systems AVI1875-050
T5 sequence (P31994 43-310): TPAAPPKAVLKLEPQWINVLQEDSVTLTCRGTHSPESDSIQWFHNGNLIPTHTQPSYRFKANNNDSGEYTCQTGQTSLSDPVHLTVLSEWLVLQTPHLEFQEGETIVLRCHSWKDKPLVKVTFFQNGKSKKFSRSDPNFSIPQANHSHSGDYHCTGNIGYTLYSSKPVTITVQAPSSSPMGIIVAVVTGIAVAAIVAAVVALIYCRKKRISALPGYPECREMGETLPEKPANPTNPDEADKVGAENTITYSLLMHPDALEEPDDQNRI
Description: as §1, §2

[6] = biological target: T6, human Fc gamma receptors III FcγRIIIa/CD16 (Homo sapiens, UniProt P08637); assay: Human FcγR binding ELISA, FcγRIIIa/CD16 (Example 8); details: ELISA binding affinity
T6 construct: purchased R&D systems 4325-FC-050
T6 sequence (P08637 17-254): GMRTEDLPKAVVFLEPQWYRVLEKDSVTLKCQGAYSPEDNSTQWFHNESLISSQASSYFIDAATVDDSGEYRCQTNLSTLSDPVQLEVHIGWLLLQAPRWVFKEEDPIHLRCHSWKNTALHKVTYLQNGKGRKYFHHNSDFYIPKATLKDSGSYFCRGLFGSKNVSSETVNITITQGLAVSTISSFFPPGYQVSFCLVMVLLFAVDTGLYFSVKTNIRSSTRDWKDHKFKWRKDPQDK
Description: as §1, §2

[7] = biological target: T7, human neonatal Fc receptor (FcRn) (Homo sapiens, UniProt P55899); assay: Human FcRn binding AlphaLISA at pH 6 (Example 9)
T7 construct: purchased Perkin Elmer AL3095C
Description: The interaction of the unmodified and of conjugated anti-PD1 antibodies with the human neonatal Fc receptor (FcRn) at pH 6 was measured using the AlphaLISA® Human FcRn Binding Kit (AL3095C) from Perkin Elmer (Schwerzenbach, Switzerland). […] When reference IgG binds to FcRn, donor and acceptor beads come into proximity enabling the transfer of singlet oxygen that trigger a cascade of energy transfer reactions in the acceptor beads, resulting in a sharp peak of light emission at 615 nm. Addition of a free IgG antibodies into the AlphaLISA® mixture creates a competition for the binding of FcRn to the reference antibody resulting in a loss of signal.
After 90 min at 23° C. in the dark, AlphaLISA® signal was measured on an EnSpire plate reader (Excitation at 680 nm, Emission at 615 nm) from Perkin Elmer (Schwerzenbach, Switzerland).

T1 sequence (Q9NZQ7 19-290): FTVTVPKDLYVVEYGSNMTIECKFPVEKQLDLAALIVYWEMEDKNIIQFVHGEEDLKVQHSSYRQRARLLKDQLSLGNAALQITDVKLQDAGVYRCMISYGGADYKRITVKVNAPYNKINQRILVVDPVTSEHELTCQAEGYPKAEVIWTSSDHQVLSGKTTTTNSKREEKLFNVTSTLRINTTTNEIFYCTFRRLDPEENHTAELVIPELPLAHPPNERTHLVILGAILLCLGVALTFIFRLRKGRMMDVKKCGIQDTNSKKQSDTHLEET

Kd [1]: > 100 nM
ka [2]: 342000 M⁻¹ s⁻¹
kd [2]: 0.0077 s⁻¹
Kd [3]: 0.315 nM
Kd [4]: 1350 nM
Kd [5]: 2630 nM
Kd [6]: 1710 nM
Kd [7]: 6 nM
Substance: LZM-009: anti-PD-1 antibody, VH SEQ ID NO: 376, VL SEQ ID NO: 377 [reference compound]
